The target in test [1] is extracellular domain of FGFR2c protein (Example 1) (UniProt P21802). The experiment in a line: phage ELISA. A general note: An ELISA detects its analyte on a solid surface through an enzyme-linked reagent.
In test [2] the target is extracellular domain of the FGFR2b protein (NP_075259.4) (UniProt P21802). The test is described as follows: phage ELISA.
Chain of extracellular domain of the FGFR2b protein (NP_075259.4) (P21802 other isoform, or with tags, fused parts or gaps): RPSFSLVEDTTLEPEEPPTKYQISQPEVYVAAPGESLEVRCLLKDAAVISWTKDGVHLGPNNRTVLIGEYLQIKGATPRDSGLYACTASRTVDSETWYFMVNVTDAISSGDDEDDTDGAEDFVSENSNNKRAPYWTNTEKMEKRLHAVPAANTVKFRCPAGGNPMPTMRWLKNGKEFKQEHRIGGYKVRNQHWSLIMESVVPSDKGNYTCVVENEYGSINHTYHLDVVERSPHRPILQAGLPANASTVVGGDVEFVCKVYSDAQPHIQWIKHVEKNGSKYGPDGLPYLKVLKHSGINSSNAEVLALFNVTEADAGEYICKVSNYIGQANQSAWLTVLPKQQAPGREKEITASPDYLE

Chain of extracellular domain of FGFR2c protein (Example 1) (P21802 22-377): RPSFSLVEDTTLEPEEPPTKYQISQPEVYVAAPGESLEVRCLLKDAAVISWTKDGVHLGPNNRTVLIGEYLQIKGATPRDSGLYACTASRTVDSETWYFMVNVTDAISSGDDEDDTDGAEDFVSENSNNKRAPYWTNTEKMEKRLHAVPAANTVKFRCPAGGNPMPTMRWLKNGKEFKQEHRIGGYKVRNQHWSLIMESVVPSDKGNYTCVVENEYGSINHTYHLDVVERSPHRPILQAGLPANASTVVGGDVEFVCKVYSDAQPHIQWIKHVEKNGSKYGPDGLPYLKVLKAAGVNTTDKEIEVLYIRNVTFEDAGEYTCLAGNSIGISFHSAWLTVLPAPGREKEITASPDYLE

“Negative control (Tables 1 and 2) (antibody)”: the OD (450 nm) value in test [1] worked out at 0.045; in test [2], 0.024.

The values above are taken from patent publication EP4714976A1.
